Experimental data from the RNAGym collection of RNA variant scans (doi:10.7554/elife.80360).

B1: Twister Ribozyme (parent)
chain: AACACUGCCAAUGCCGGUCCCAAGCCCGGAUAAAAGUGGAGGGGGCGG

Variants of: B1
Experiment: self-cleavage, relative activity (ratio to wild type); higher = more cleavage; co-transcriptional

| Variant | self-cleavage |
| --- | --- |
| CACACUGCCAAUGCCGGUCCCAAGCCCGGAUAAAAGUGGAGGGCGCGG [A1C G44C] | 0.162 |
| AAGACGGCCAAUGCCGGUCCCAAGCCCGGAUAAAAGUGGAGGGGGCGG [C3G U6G] | 0.015 |
| AACACUGCCAAUGCCGGUCCCAAGCCCGGAUAAAAAUGGAGGGGGCGC [G36A G48C] | 0.99 |
| AACACUCCCAAUGCCGGUCCCGAGCCCGGAUAAAAGUGGAGGGGGCGG [G7C A22G] | 0.0331 |
| AACACUGCCAAUGCCAGUCCCAAGCCCGGAUAAAAGUGGAGGGGGCAG [G16A G47A] | 0.702 |
| AACACUGCCUAUGCCGGUCCCAAGCCCGGAUAGAAGUGGAGGGGGCGG [A10U A33G] | 0.825 |
| AACACUGCCAAAGCCGGUCCCAAGCCCGGAUAAAAGUUGAGGGGGCGG [U12A G38U] | 1.01 |
| AACACUGCCAAUGCCGGUCCCCAGCCCGGAUAAAAGUGGAGGGGGCGC [A22C G48C] | 1.16 |
| AACACUGCCAAUGCCGGUCCCACGCCCGGAUAAAAGUUGAGGGGGCGG [A23C G38U] | 0.107 |
| AACACUGCCAAUGCCGGUCCCAAGCCCGGAAAAAAGAGGAGGGGGCGG [U31A U37A] | 0.721 |
| AACACUGCCAAUGCCGGUCCCAACCCCGGAUAAAGGUGGAGGGGGCGG [G24C A35G] | 0.0669 |
| AACACUGCCAAUGACGGUCCCAAGCCCGGAUCAAAGUGGAGGGGGCGG [C14A A32C] | 0.914 |
| AACACUGCCAAUUCCGGUCCCUAGCCCGGAUAAAAGUGGAGGGGGCGG [G13U A22U] | 0.174 |
| AACACUGCCAAUGCCGGUCCCAAACCCGGAUAAAAGCGGAGGGGGCGG [G24A U37C] | 0.067 |
| CACACUGCCAAUGCCGGUCCCAAGCCCGGAUAAAAGUGGAGGGGGAGG [A1C C46A] | 0.148 |
| AACACUGCCAAUGCCGGUCCCAAGCCCGGAUAAAAGCGGAGGGGGGGG [U37C C46G] | 0.706 |
| AACACUGCCAAUGCCGGUCCCAAGCCCGGAUAACAUUGGAGGGGGCGG [A34C G36U] | 0.084 |
| AACACUGCCAAUGCCGGUCCCUAGGCCGGAUAAAAGUGGAGGGGGCGG [A22U C25G] | 0.115 |
| ACCACAGCCAAUGCCGGUCCCAAGCCCGGAUAAAAGUGGAGGGGGCGG [A2C U6A] | 0.0688 |
| AACGCUGCCAAUGACGGUCCCAAGCCCGGAUAAAAGUGGAGGGGGCGG [A4G C14A] | 0.76 |
| AACACUGCCAAUGCCGGUCCCAAGCCCGGACUAAAGUGGAGGGGGCGG [U31C A32U] | 1.02 |
| UACGCUGCCAAUGCCGGUCCCAAGCCCGGAUAAAAGUGGAGGGGGCGG [A1U A4G] | 0.0751 |
| AACACUGCCAAUUCCGGUCCCAAGCCCGGAUAAAAGUGGGGGGGGCGG [G13U A40G] | 0.152 |
| AACACUGCCAGUUCCGGUCCCAAGCCCGGAUAAAAGUGGAGGGGGCGG [A11G G13U] | 0.705 |
| AACACUGCCAAUGUUGGUCCCAAGCCCGGAUAAAAGUGGAGGGGGCGG [C14U C15U] | 1.51 |
| AACACUGCCAAUGCCGGUCCCAAGCCCGCAUAAAAGUGGAGGUGGCGG [G29C G43U] | 0.156 |
| AACACUGCCAAUGCGGGUCCCAAGCCCAGAUAAAAGUGGAGGGGGCGG [C15G G28A] | 0.624 |

| Variant | self-cleavage |
| --- | --- |
| AACACUGCCAAUGCCGGUCCCAAUCCCGGUUAAAAGUGGAGGGGGCGG [G24U A30U] | 0.109 |
| AACACUGCCAAUGCCGCUCCCAAGCCCGGAUAAAAUUGGAGGGGGCGG [G17C G36U] | 0.0484 |
| GACACUGCCAAUGGCGGUCCCAAGCCCGGAUAAAAGUGGAGGGGGCGG [A1G C14G] | 0.168 |
| AACACUGCCAAUGCCGGUCCCAAGCCUGGAUAAAAGUGGAGGGGGCGG [C27U] | 0.876 |
| AACACUGCCAAUGCCGGUCACAAGACCGGAUAAAAGUGGAGGGGGCGG [C20A C25A] | 0.0826 |
| AACACUGCCAAUGCCCGUCCCAAGCCCGGAUAAAAGUGGAGGGGGCGA [G16C G48A] | 0.473 |
| AACACUGCCAAUGCCGGUCCCGAGCCCGGUUAAAAGUGGAGGGGGCGG [A22G A30U] | 0.316 |
| AACACUGCCAAUGCCGGUCCCAAGCCCGGAUAAAAGUGGUGGGCGCGG [A40U G44C] | 0.178 |
| AACACUGCCAAUGCCGGUCCCAAGACCGGAUAAAAGUGGAGGCGGCGG [C25A G43C] | 0.0876 |
| AUCACUGCCAAUGCCGGUCCCAAGCCAGGAUAAAAGUGGAGGGGGCGG [A2U C27A] | 0.124 |
| AACACUGCCAAUGCCGGUCCCAAGCCCGGAUACAAGUGGAAGGGGCGG [A33C G41A] | 0.309 |
| AACACUGCCAAUGCCGGUCCCAAGCCCGGAUAGAAGUGGAGGGUGCGG [A33G G44U] | 0.86 |
| AACACUGCCAAUGCCUGUCCCAAGCCGGGAUAAAAGUGGAGGGGGCGG [G16U C27G] | 0.941 |
| AACACUGCCAAUGCCGGUCCCAAGCCCGGAUAAGAGGGGAGGGGGCGG [A34G U37G] | 0.314 |
| AACACUGCCAAUGCCGGUCCCAAGCCCGGAUAAACGUGGAGGGAGCGG [A35C G44A] | 0.87 |
| AACACUGCCAAUGCUGGUCCCAAGCCCGGAUAAAAGUGUAGGGGGCGG [C15U G39U] | 0.27 |
| AAAACUGCCAAUGCCGGUCCCAAGCCCUGAUAAAAGUGGAGGGGGCGG [C3A G28U] | 0.144 |
| AACACUGCCAAAGCCGGUCCCAAGCCCGAAUAAAAGUGGAGGGGGCGG [U12A G29A] | 1.11 |
| AACACUGCGAAUGCCGGUCCCAAGCCCGGAUAAAAGUGGAAGGGGCGG [C9G G41A] | 0.168 |
| AACACUGCCACUGCCGGUCCCAAGCCCGGAUAAAAGUGGAGGUGGCGG [A11C G43U] | 0.252 |
| AACACUGCGAAUGCCGGUCCCAAGCCCGGAUAAAAGUGAAGGGGGCGG [C9G G39A] | 0.137 |
| AACACUGCCAUAGCCGGUCCCAAGCCCGGAUAAAAGUGGAGGGGGCGG [A11U U12A] | 0.95 |
| AAUACUGCCAAUGCCGGUCCCAAGCGCGGAUAAAAGUGGAGGGGGCGG [C3U C26G] | 0.0758 |
| AACACUGCUAAUGCCGGUCCCAAGCUCGGAUAAAAGUGGAGGGGGCGG [C9U C26U] | 0.086 |
| AACACUGCCAAGGCCGGUCCCAAGCCCGGAUAAAAGUGGACGGGGCGG [U12G G41C] | 0.315 |
| AACACUGCCAAUGCCGGGCCCAAGACCGGAUAAAAGUGGAGGGGGCGG [U18G C25A] | 0.138 |
| AACACUAGCAAUGCCGGUCCCAAGCCCGGAUAAAAGUGGAGGGGGCGG [G7A C8G] | 0.153 |
